Experimental data from patent US20260265405A1 (NONA BIOSCIENCES SUZHOU, published 2026).
Changes are numbered by the printed parent chain. In names and notes the source's numbering stands.

B1: PR300159 (antibody, V domains shown)
VH: QVQLVESGGGVVQPGRSLRLSCAASGFTFSSDGMNWVRQAPGKGLEWVAVIWNDGSNKYYADSVKGRFTISRDNSKNTLYLQMNSLRAEDTAVYYCARDRGPLWPLDYWGQGTLVTVSS
VL: DIQMTQSPSTLSASVGDRVTITCRASQSISRWLAWYQQKPGKAPKLLIYKASSLESGVPSRFSGSGSGTEFTLTISNLQPDDFATFYCQQYNSYSRTFGQGTKVEIKR
notes: Parental antibody from Harbour H2L2 mice
B2: PR300159-5 (antibody, V domains shown)
VH: B1 VH
VL: B1 VL with N92Q
notes: PTM removal variant of PR300159: light chain N92Q
B3: PR300159-1 (antibody, V domains shown)
VH: B1 VH with G33A, D54E
VL: B1 VL with N92S
notes: PTM removal variant of PR300159: heavy chain G33A and D54E, light chain N92S
B4: PR300159-6 (antibody, V domains shown)
VH: B1 VH
VL: B1 VL with S93T
notes: PTM removal variant of PR300159: light chain S93T
B5: PR300159-9 (antibody, V domains shown)
VH: B1 VH with G33A, D54E
VL: B1 VL with S93A
notes: PTM removal variant of PR300159: heavy chain G33A and D54E, light chain S93A
B6: PR300159-4 (antibody, V domains shown)
VH: B1 VH
VL: B1 VL with S93A
notes: PTM removal variant of PR300159: light chain S93A
B7: PR300159-8 (antibody, V domains shown)
VH: B1 VH
VL: B1 VL with N92A
notes: PTM removal variant of PR300159: light chain N92A
B8: PR300159-3 (antibody, V domains shown)
VH: B1 VH with G33A, G55A
VL: B1 VL
notes: PTM removal variant of PR300159: heavy chain G33A and G55A
B9: PR300159-7 (antibody, V domains shown)
VH: B1 VH
VL: B1 VL with N92T
notes: PTM removal variant of PR300159: light chain N92T
B10: PR300186 (antibody, human IgG1, kappa, V domains shown)
VH: QVQLQESGPGLVKPSETLSLTCTVSGGSINNYYWSWVRQPPGKGLEWIGYIFYSGSTNSNPSLKSRVIISVDTSKNQFSLKLSSVTAADTAVYYCAREVGRIAVAGWFFDLWGRGTLVTVSS
VL: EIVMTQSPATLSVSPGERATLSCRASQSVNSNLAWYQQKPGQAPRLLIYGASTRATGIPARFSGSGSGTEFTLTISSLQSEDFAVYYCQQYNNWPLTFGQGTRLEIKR
notes: as for B1
B11: PR300186-10 (antibody, human IgG1, kappa, V domains shown)
VH: B10 VH with N30Q, N58Q
VL: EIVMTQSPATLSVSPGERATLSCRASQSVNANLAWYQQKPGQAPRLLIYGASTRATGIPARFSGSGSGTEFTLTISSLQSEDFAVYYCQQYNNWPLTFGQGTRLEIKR
notes: PTM removal variant of PR300186: heavy chain N30Q and N58Q, light chain S31A
B12: PR300186-9 (antibody, human IgG1, kappa, V domains shown)
VH: B10 VH
VL: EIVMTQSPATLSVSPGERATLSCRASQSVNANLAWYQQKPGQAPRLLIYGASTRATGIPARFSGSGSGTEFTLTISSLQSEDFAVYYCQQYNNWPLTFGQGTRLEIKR
B13: PR300186-3 (antibody, human IgG1, kappa, V domains shown)
VH: B10 VH with N30Q, N58Q
VL: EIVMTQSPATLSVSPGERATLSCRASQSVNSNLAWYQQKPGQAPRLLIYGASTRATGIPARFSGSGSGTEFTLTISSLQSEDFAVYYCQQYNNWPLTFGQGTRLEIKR

These binders were tested against T1, membrane-bound human MSLN (on CHOK1-hu MSLN cells and endogenously on COV644 cells) (human, UniProt Q13421 296-598) (assay: cell-based or functional assay).
T1 sequence (Q13421 other isoform, or with tags, fused parts or gaps limits assumed): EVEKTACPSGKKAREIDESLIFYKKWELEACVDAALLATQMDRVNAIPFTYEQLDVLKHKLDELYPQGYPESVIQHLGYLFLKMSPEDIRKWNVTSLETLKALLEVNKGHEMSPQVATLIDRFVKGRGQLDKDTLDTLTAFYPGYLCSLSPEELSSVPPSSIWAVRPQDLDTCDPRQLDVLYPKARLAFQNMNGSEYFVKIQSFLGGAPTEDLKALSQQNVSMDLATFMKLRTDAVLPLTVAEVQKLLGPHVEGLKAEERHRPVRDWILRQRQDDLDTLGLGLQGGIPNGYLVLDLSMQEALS
B1 was tested, and the “Internalization FLU” value was 22200 FLU.
For B2, the “Internalization FLU” value was 20900 FLU.
B3 was tested, and the “Internalization FLU” value was 13700 FLU.
In the case of B4, the “Internalization FLU” value is reported as 17800 FLU.
For B5, the “Internalization FLU” value was 8300 FLU.
For B6, the “Internalization FLU” value was 20900 FLU.
For B7, the “Internalization FLU” value was 21200 FLU.
In the case of B8, the “Internalization FLU” value is reported as 9180 FLU.
With B9 the “Internalization FLU” value was 22400 FLU.
In the case of B10, the “Internalization FLU” value is reported as 6050 FLU.
In the case of B11, the “Internalization FLU” value is reported as 8220 FLU.
In the case of B12, the “Internalization FLU” value is reported as 8070 FLU.
B13 was tested, and the “Internalization FLU” value was 7040 FLU.

Each binder was assayed against T1, membrane-bound human MSLN (on CHOK1-hu …) (assay: flow cytometry on COV644 cells).
Method: (§1) Binding of recombinant anti-MSLN antibodies to COV644 cell line (ECACC, catalog: 07071908) was tested by flow cytometry. In brief, anti-MSLN antibodies were serially diluted in staining buffer (PBS containing 2% FBS). 50 μL of diluted antibody solution was added to 50 μL of cell suspension containing 1-2×10⁵ cells and incubated at 4° C. for 1 hour. The cells were washed twice with staining buffer (PBS containing 2% FBS), and 100 μL of 1:1000 diluted florescent labeled anti-human IgG antibody (Alexa Fluor® 488 AffiniPure Goat Anti-Human IgG(H+L), Jackson ImmunoResearch, Catalog 109-545-088) was added into each well. After 1-hour incubation at 4° C., cells were washed twice with staining buffer and subjected to flow cytometry.
In the case of B1, the EC50 is reported as 1.99 nM and the “TOP (MFI)” value is reported as 2.07e+06 MFI.
With B2 the EC50 was 2.75 nM and the “TOP (MFI)” value was 2.13e+06 MFI.
For B3, the EC50 was 1.64 nM and the “TOP (MFI)” value was 2.34e+06 MFI.
B4 was tested, and the EC50 was 4.07 nM and the “TOP (MFI)” value was 2.19e+06 MFI.
With B5 the EC50 was 8.25 nM and the “TOP (MFI)” value was 1.56e+06 MFI.
For B7, the EC50 was 2.33 nM and the “TOP (MFI)” value was 2.15e+06 MFI.
In the case of B8, the EC50 is reported as 2.14 nM and the “TOP (MFI)” value is reported as 2.06e+06 MFI.

These binders were tested against T1, membrane-bound human MSLN (on CHOK1-hu …) (assay: flow cytometry on COV644 cells (endogenous human MSLN), Alexa Fluor 488 anti-human IgG detection [panel A]).
Method: (§2) Binding of recombinant anti-MSLN antibodies to human or cynomolgus MSLN-expressing cells was tested by flow cytometry.
as §1, with “In” for “Binding of recombinant anti-MSLN antibodies to COV644 cell line (ECACC, catalog: 07071908) was tested by flow cytometry. In”
In the case of B1, the “EC50 (read off the curve)” value is reported as about 0.4 nM.

What follows are binders tested against T2, recombinant human MSLN ECD His-tag protein (Acro Biosystems, Catalog #MSN-H5223) (human, UniProt Q13421 296-580, limits assumed) (assay: BLI (Octet Red384), antibody on AHC sensor, human MSLN-His in solution).
T2 construct: extracellular domain; Bought protein; also called human MSLN protein; recombinant human MSLN-His tag; not shown: His-tag
T2 sequence (Q13421 other isoform, or with tags, fused parts or gaps limits assumed): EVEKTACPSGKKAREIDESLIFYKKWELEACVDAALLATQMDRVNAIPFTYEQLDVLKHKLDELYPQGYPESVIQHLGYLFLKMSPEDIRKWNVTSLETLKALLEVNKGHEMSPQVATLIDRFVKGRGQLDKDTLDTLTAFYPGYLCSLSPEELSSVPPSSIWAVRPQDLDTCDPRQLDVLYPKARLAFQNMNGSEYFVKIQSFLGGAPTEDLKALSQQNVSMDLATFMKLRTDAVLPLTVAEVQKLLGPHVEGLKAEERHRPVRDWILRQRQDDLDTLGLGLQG
Method: In the example, binding kinetics of anti-MSLN antibodies to soluble MSLN were analyzed by Octet Red384 (Fortebio). In Bio-Layer Interferometry (BLI) analysis, recombinant human MSLN-His tag (Acro Biosystems, Catalog #MSN-H5223) was serially diluted with 1× kinetic buffer (Fortebio). Anti-MSLN antibodies were diluted to 5 μg/mL. Then the diluted antibodies, antigen and regeneration buffer (10 mM glycine pH 1.75) were added to 96-well plates (Greiner). Rate constants for association and dissociation were measured using AHC sensor (Fortebio). The sensor surface was regenerated after each binding experiment with regeneration buffer. The traces were processed using Octet Data Analysis Software (version 11.0, Pall ForteBio, CA, USA).
B1 was tested, and the Kd was 0.00965 nM and the kon was 1.28e+06 M⁻¹ s⁻¹.
For B2, the Kd was under 0.001 nM and the kon was 1.05e+06 M⁻¹ s⁻¹.
B3 was tested, and the Kd was under 0.001 nM and the kon was 947000 M⁻¹ s⁻¹.
In the case of B4, the Kd is reported as under 0.001 nM and the kon is reported as 819000 M⁻¹ s⁻¹.
Binder B5 has a Kd of under 0.001 nM and a kon of 566000 M⁻¹ s⁻¹.
With B6 the Kd was under 0.001 nM and the kon was 978000 M⁻¹ s⁻¹.
B7 was tested, and the Kd was under 0.001 nM and the kon was 956000 M⁻¹ s⁻¹.
With B8 the Kd was under 0.001 nM and the kon was 828000 M⁻¹ s⁻¹.
Binder B9 has a Kd of under 0.001 nM and a kon of 1.06e+06 M⁻¹ s⁻¹.
B10 was tested, and the Kd was 18.6 nM and the kon was 705000 M⁻¹ s⁻¹.
Binder B11 has a Kd of 128 nM and a kon of 431000 M⁻¹ s⁻¹.

The binders below were run against T1, membrane-bound human MSLN (on CHOK1-hu …) (assay: flow cytometry on CHOK1-human MSLN cells, Alexa Fluor 488 anti-human IgG detection [panel B]).
Method: as §2
as §1, with “In” for “Binding of recombinant anti-MSLN antibodies to COV644 cell line (ECACC, catalog: 07071908) was tested by flow cytometry. In”
For B10, the “EC50 (read off the curve)” value was about 0.4 nM.

The binders below were run against T1, membrane-bound human MSLN (on CHOK1-hu …) (assay: flow cytometry on CHOK1-human MSLN cells, Alexa Fluor 488 anti-human IgG detection [panel A]).
Method: as §2
as §1, with “In” for “Binding of recombinant anti-MSLN antibodies to COV644 cell line (ECACC, catalog: 07071908) was tested by flow cytometry. In”
B1 was tested, and the “EC50 (read off the curve)” value was about 1 nM.
